# Laboratory results from the Human Domainome abundance scans (Beltran et al. 2025).
# ± gives the uncertainty stated by the source.
# Test: abundance fitness (aPCA) (normalised: wild type 0, dead -1); higher = more abundant; growth selection in yeast, the domain comes from the species named
# Settings: Homo sapiens
row,Substance,abundance fitness
1,"Scaffold attachment factor B1 E76Q, Q15424",-0.415 ± 0.088
2,"Scaffold attachment factor B1 E76R, Q15424",-0.055 ± 0.054
3,"Scaffold attachment factor B1 E76T, Q15424",-0.195 ± 0.073
4,"Scaffold attachment factor B1 E76V, Q15424",-0.044 ± 0.049
5,"Scaffold attachment factor B1 E76W, Q15424",-0.305 ± 0.07
6,"Scaffold attachment factor B1 E76Y, Q15424",-0.175 ± 0.056
7,"Scaffold attachment factor B1 E80A, Q15424",-0.055 ± 0.051
8,"Scaffold attachment factor B1 E80D, Q15424",-0.323 ± 0.14
9,"Scaffold attachment factor B1 E80G, Q15424",-0.151 ± 0.085
10,"Scaffold attachment factor B1 E80K, Q15424",-0.889 ± 0.25
11,"Scaffold attachment factor B1 E80M, Q15424",-0.361 ± 0.19
12,"Scaffold attachment factor B1 E80N, Q15424",-0.513 ± 0.43
13,"Scaffold attachment factor B1 E80Q, Q15424",-0.274 ± 0.1
14,"Scaffold attachment factor B1 E80R, Q15424",-0.443 ± 0.092
15,"Scaffold attachment factor B1 E80T, Q15424",-0.675 ± 0.2
16,"Scaffold attachment factor B1 E80V, Q15424",-0.223 ± 0.059
17,"Scaffold attachment factor B1 E80W, Q15424",-0.409 ± 0.15
18,"Scaffold attachment factor B1 G27A, Q15424",-0.257 ± 0.061
19,"Scaffold attachment factor B1 G27D, Q15424",-0.027 ± 0.08
20,"Scaffold attachment factor B1 G27E, Q15424",-0.068 ± 0.062
21,"Scaffold attachment factor B1 G27F, Q15424",-0.246 ± 0.12
22,"Scaffold attachment factor B1 G27H, Q15424",-0.692 ± 0.14
23,"Scaffold attachment factor B1 G27I, Q15424",-0.03 ± 0.079
24,"Scaffold attachment factor B1 G27K, Q15424",-0.204 ± 0.1
25,"Scaffold attachment factor B1 G27L, Q15424",-0.191 ± 0.057
26,"Scaffold attachment factor B1 G27M, Q15424",-0.09 ± 0.11
27,"Scaffold attachment factor B1 G27N, Q15424",-0.187 ± 0.12
28,"Scaffold attachment factor B1 G27P, Q15424",-0.519 ± 0.11

row,Substance,abundance fitness
1,"Scaffold attachment factor B1 G27Q, Q15424",-0.334 ± 0.08
2,"Scaffold attachment factor B1 G27R, Q15424",-0.327 ± 0.052
3,"Scaffold attachment factor B1 G27S, Q15424",-0.092 ± 0.07
4,"Scaffold attachment factor B1 G27V, Q15424",-0.1 ± 0.048
5,"Scaffold attachment factor B1 G27W, Q15424",-0.559 ± 0.057
6,"Scaffold attachment factor B1 G27Y, Q15424",-0.088 ± 0.12
7,"Scaffold attachment factor B1 G52A, Q15424",-0.538 ± 0.069
8,"Scaffold attachment factor B1 G52C, Q15424",-0.931 ± 0.082
9,"Scaffold attachment factor B1 G52D, Q15424",-0.691 ± 0.084
10,"Scaffold attachment factor B1 G52E, Q15424",-0.727 ± 0.079
11,"Scaffold attachment factor B1 G52F, Q15424",-1.25 ± 0.11
12,"Scaffold attachment factor B1 G52H, Q15424",-1.02 ± 0.15
13,"Scaffold attachment factor B1 G52I, Q15424",-1.72 ± 0.32
14,"Scaffold attachment factor B1 G52K, Q15424",-1.35 ± 0.18
15,"Scaffold attachment factor B1 G52L, Q15424",-1.34 ± 0.086
16,"Scaffold attachment factor B1 G52M, Q15424",-1.21 ± 0.077
17,"Scaffold attachment factor B1 G52N, Q15424",-1.45 ± 0.23
18,"Scaffold attachment factor B1 G52P, Q15424",-0.916 ± 0.079
19,"Scaffold attachment factor B1 G52Q, Q15424",-0.781 ± 0.066
20,"Scaffold attachment factor B1 G52R, Q15424",-1.18 ± 0.054
21,"Scaffold attachment factor B1 G52S, Q15424",-0.786 ± 0.057
22,"Scaffold attachment factor B1 G52T, Q15424",-0.939 ± 0.078
23,"Scaffold attachment factor B1 G52V, Q15424",-0.978 ± 0.059
24,"Scaffold attachment factor B1 G52W, Q15424",-1.2 ± 0.073
25,"Scaffold attachment factor B1 G52Y, Q15424",-1.15 ± 0.11
26,"Scaffold attachment factor B1 G69C, Q15424",-0.431 ± 0.093
27,"Scaffold attachment factor B1 G69D, Q15424",-0.422 ± 0.17
